Read-outs that look alike come from different tables or passages of the source. Values belong to the molecule of their own block, whether it stands above or below them. *1 amine or outer side, *2 acyl side, *3 side chain or, on linkers, in order; H or OH if unused. Where a SMILES comes first, the peptide text is derived from it. Where no end group is shown, it is not given here. Side-chain parts run from the residue outwards. [ ]: non-standard residue; d: D form. The star is where a group is joined. X1 = 5‑aminoethylsulfonamide isoquinoline, O=S(=O)(NCCN*)c1cccc2cnccc12; Isoquinoline5sulfonyl = O=S(=O)(c1cccc2cnccc12)*; X2 = O=C(OCC(Cc1ccccc1)N[*:1])[*:2]; Ethylenediamine = C(CN[*:2])N[*:1]; hLeu = CC(C)CC[C@H](N)C(=O)O; Nle = CCCC[C@H](N)C(=O)O; Orn = NCCC[C@H](N)C(=O)O; Dab = NCC[C@H](N)C(=O)O; Nva = CCC[C@H](N)C(=O)O; Abu = CC[C@H](N)C(=O)O; Dap = NC[C@H](N)C(=O)O; GlyNH2 = aminoglycine; Ava = NCCCCC(=O)O; βAla = NCCC(=O)O
Tests used:
PC-3 cells = experiment: ssDNA apoptosis ELISA (induction of apoptosis in prostate cancer cells); type: cell-based; settings: 50 μM, optical density of treated divided by untreated cells
Procedure: Cells were assayed for Apoptosis using the ssDNA Apoptosis ELISA kit (Chemicon International Inc.). Cells were seeded in 96-well plates (5000 cells/well) and treated with different concentrations of the inhibitors. At different time point, plates were centrifuges at 200 g for 5 min, medium was removed and the cells were fixed with 80% methanol in PBS for 30 min at room temperature. Plates were dried by floating in a waterbath at 37° C. for 20 minutes. 50 μl of Formamide was added to each well and incubate at room temperature for 10 min. Plates were heated to 75° C. in a circulating waterbath for 10 min, cooled in refrigerator for 5 min, and then formamide was removed. Plates were blocked by 3% non-fat dry milk in distilled water (w/v) for 1 hr at 37° C. Blocking was removed and 100 μl of antibody mixture (primary monoclonal antibody to ssDNA and HRP-labelled anti-mouse IgM) was added to each well. Plates were monitored for colour development by ABTS using microplate reader at 405 nm.
DNA in apoptotic cells is sensitive to denaturation by formamide in contrast to necrotic cells. This sensitivity is due to changes in apoptotic cells chromatin. The specific denaturation was detected with monoclonal antibody to single stranded DNA. Using ssDNA Apoptosis ELISA kit (Chemicon International, Inc.) chimeric compounds were analyzed for their potential to induce apoptosis in PC-3 cells compared to TRAIL (TNF-related apoptosis-inducing ligand), a known apoptotic agent (R&D Systems, Inc.). Results are presented in values of apoptotic index which is calculated by dividing the optical density of treated and untreated cells.

PKB = target: T1, PKB (Homo sapiens, UniProt P31749); experiment: PKB in vitro kinase activity assay (soluble His-HA-PKB / SPA bead screening); type: biochemical; parameters: % Inhibition PKB I / % Inhibition PKB II: concentration or dose not given beside the values; settings: for PKB-kinase (spa) Assay 1, % inhibition of kinase activity / PKB-kinase (spa) Assay 2, % inhibition of kinase activity / inhibition at 1 µM: 1 μM compound concentration; for % Inhibition PKB I / % Inhibition PKB II: plate screening
T1 construct: His; HA; made in house
T1 sequence (P31749 whole entry, species assumed): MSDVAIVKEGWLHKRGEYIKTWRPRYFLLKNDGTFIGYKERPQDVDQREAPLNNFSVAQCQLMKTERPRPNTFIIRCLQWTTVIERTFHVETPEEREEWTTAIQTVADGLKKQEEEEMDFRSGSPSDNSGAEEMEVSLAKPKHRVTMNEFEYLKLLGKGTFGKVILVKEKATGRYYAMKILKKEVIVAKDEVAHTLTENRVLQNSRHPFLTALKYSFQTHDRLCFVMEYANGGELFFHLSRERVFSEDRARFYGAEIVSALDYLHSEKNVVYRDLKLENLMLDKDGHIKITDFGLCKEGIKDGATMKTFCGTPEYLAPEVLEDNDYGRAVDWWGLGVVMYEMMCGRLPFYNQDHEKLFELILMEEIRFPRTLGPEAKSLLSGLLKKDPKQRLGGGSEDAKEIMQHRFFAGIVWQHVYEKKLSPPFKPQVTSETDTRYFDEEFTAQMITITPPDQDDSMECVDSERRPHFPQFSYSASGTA

PKA = target: T2, PKA (Bos taurus, UniProt P00517); experiment: In vitro PKA kinase activity assay (kemptide / SPA beads); type: biochemical; parameters: % Inhibition PKA: concentration or dose not given beside the values; settings: for PKA-kinase Assay 1, % inhibition of kinase activity / PKA-kinase Assay 2, % inhibition of kinase activity: 1 μM compound concentration; for % Inhibition PKA: plate screening;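 on all read-outs here: Cell-free assay of purified PKA catalytic subunit phosphorylating the 7-mer kemptide substrate, run in MOPS buffer with magnesium acetate and BSA, with blank wells lacking enzyme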
T2 construct: purchased Promega

[1] = chimeric PTR compounds (peptide conjugated to isoquinoline small molecule), read-out: PKB IC50
[2] = Table 6, most active compounds from plate TY-60020, read-out: IC50 PKA
[3] = Assay 1, read-out: PKB-kinase (spa) Assay 1, % inhibition of kinase activity
[4] = Assay 2, read-out: PKB-kinase (spa) Assay 2, % inhibition of kinase activity
[5] = Table 6, most active compounds from plate TY-60020, read-out: IC50 PKB
[6] = Table 3, linear 7-mer peptides, read-out: Activity PKA
[7] = Table 3, linear 7-mer peptides, read-out: Activity PKB
[8] = Table 10, accurate IC50 curve, peptide moiety alone, read-out: IC50 μM PKA
[9] = Table 10, accurate IC50 curve, peptide moiety alone, read-out: IC50 μM PKB
[10] = chimeric PTR compounds (peptide conjugated to isoquinoline small molecule), read-out: PKA IC50

IC50 (PKA; Table 2, chimeric compounds, read-out: Activity PKA): 1 µM
IC50 (PKB; Table 2, chimeric compounds, read-out: Activity PKB): 3 µM
Molecule: CC[C@H](NC(=O)[C@H](CO)NC(=O)[C@@H](NC(=O)[C@H](CCCNC(=N)N)NC(=O)[C@@H]1CCCN1C(=O)[C@@H](N)CCCNC(=N)N)[C@@H](C)O)C(=O)NC(COC(=O)NCCNS(=O)(=O)c1cccc2cnccc12)Cc1ccccc1 (stereo partly shown) [PTR 6013] (H-RPRTS[Abu][X2]-{Ethylenediamine-Isoquinoline5sulfonyl})

IC50 (PKA; [8]): 80 µM
% Inhibition PKA (PKA; peptide moiety alone): −2%
IC50 (PKB; [9]): 18 µM
% Inhibition PKB I (PKB; peptide moiety alone): 43%
Molecule: CCC[C@H](NC(=O)[C@H](CCCNC(=N)N)NC(=O)[C@@H]1CCCN1C(=O)[C@@H](N)CCCNC(=N)N)C(=O)N[C@@H](CO)C(=O)N[C@@H](C)C(=O)N[C@@H](Cc1ccccc1)C(N)=O [60002-38] (H-RPR[Nva]SAF-NH2; N-terminus and C-terminus assumed)

PKA-kinase Assay 1, % inhibition of kinase activity (PKA): 96%
PKA-kinase Assay 2, % inhibition of kinase activity (PKA): 96%
PKB-kinase (spa) Assay 1, % inhibition of kinase activity (PKB; Assay 1): 52%
PKB-kinase (spa) Assay 2, % inhibition of kinase activity (PKB; Assay 2): 60%
Molecule: 60020-3: Arg-Pro-Arg-Dap-Glu(5-aminoethylsulfonamide isoquinoline)-Orn-Phe (RPR[Dap]E(X1)[Orn]F)

PKA-kinase Assay 1, % inhibition of kinase activity (PKA): 93%
PKA-kinase Assay 2, % inhibition of kinase activity (PKA): 94%
PKB-kinase (spa) Assay 1, % inhibition of kinase activity (PKB; Assay 1): 69%
PKB-kinase (spa) Assay 2, % inhibition of kinase activity (PKB; Assay 2): 71%
Molecule: 60020-36: Arg-Pro-Arg-Dap-Glu(Gly-5-aminoethylsulfonamide isoquinoline)-Orn-Hol (RPR[Dap]E([Gly-X1])[Orn][hLeu])

IC50 (PKA; [10]): 0.6 µM
IC50 (PKB; [1]): 5.6 µM
Molecule: C[C@@H](O)[C@H](NC(=O)[C@H](CCCNC(=N)N)NC(=O)[C@@H]1CCCN1C(=O)[C@@H](N)CCCNC(=N)N)C(=O)N[C@@H](CCC(=O)NCCCCC(=O)NCCNS(=O)(=O)c1cccc2cnccc12)C(=O)N[C@@H](CO)C(=O)N[C@@H](Cc1ccccc1)C(N)=O [compound 6090] (H-RPRTE([Ava-Ethylenediamine-Isoquinoline5sulfonyl])SF-NH2; N-terminus assumed)

PKA-kinase Assay 1, % inhibition of kinase activity (PKA): 95%
PKA-kinase Assay 2, % inhibition of kinase activity (PKA): 96%
PKB-kinase (spa) Assay 1, % inhibition of kinase activity (PKB; Assay 1): 58%
PKB-kinase (spa) Assay 2, % inhibition of kinase activity (PKB; Assay 2): 52%
Molecule: 60020-11: Arg-Pro-Arg-Orn-Glu(5-aminoethylsulfonamide isoquinoline)-Orn-Phe (RPR[Orn]E(X1)[Orn]F)

PKA-kinase Assay 1, % inhibition of kinase activity (PKA): 95%
PKA-kinase Assay 2, % inhibition of kinase activity (PKA): 96%
PKB-kinase (spa) Assay 1, % inhibition of kinase activity (PKB; Assay 1): 43%
PKB-kinase (spa) Assay 2, % inhibition of kinase activity (PKB; Assay 2): 56%
Molecule: 60020-35: Arg-Pro-Arg-Dap-Glu(Gly-5-aminoethylsulfonamide isoquinoline)-Orn-Phe (RPR[Dap]E([Gly-X1])[Orn]F; not fully specified)

Continued, molecule first:

Molecule: Arg-Pro-Arg-Thr-Glu-(bAla-5-mercaptoaminopropyl-isoquinoline)-Ser-Phe [PTR 6102]
Apoptotic index (48 hours) (PC-3 cells): 2.7

Molecule: Arg-Pro-Arg-Thr-Glu-(5-mercaptoaminopropyl-isoquinoline)-Ser-Phe [PTR 6104]
Apoptotic index (48 hours) (PC-3 cells): 2.9

Molecule: Arg-Pro-Arg-Nva-Glu-(5-mercaptoaminopropyl-isoquinoline)-Ser-Phe [PTR 6134]
Apoptotic index (48 hours) (PC-3 cells): 2.2

Molecule: CCCC[C@H](NC(=O)[C@H](CCCNC(=N)N)NC(=O)[C@@H]1CCCN1C(=O)[C@@H](N)CCCNC(=N)N)C(=O)N[C@@H](CCC(=O)NCCC(=O)NCCNS(=O)(=O)c1cccc2cnccc12)C(=O)N[C@@H](CC)C(=O)N[C@@H](Cc1ccccc1)C(N)=O [compound 6138] (H-RPR[Nle]E([βAla-Ethylenediamine-Isoquinoline5sulfonyl])[Abu]F-NH2; N-terminus assumed)
Apoptotic index (48 hours) (PC-3 cells): 3.6
IC50 (PKB; [1]): 2 µM

Molecule: Arg-Pro-Arg-Nle-Glu-(5-mercaptoaminopropyl-isoquinoline)-Ser-Phe [PTR 6136]
Apoptotic index (48 hours) (PC-3 cells): 2.4

Molecule: 60020-38: Arg-Pro-Arg-Dap-Glu(Gly-5-aminoethylsulfonamide isoquinoline)-Ala-Hol (RPR[Dap]E([Gly-X1])A[hLeu])
PKA-kinase Assay 1, % inhibition of kinase activity (PKA): 98%
PKA-kinase Assay 2, % inhibition of kinase activity (PKA): 99%
PKB-kinase (spa) Assay 1, % inhibition of kinase activity (PKB; Assay 1): 49%
PKB-kinase (spa) Assay 2, % inhibition of kinase activity (PKB; Assay 2): 49%

Molecule: CCCC[C@H](NC(=O)[C@H](CCCNC(=N)N)NC(=O)[C@@H]1CCCN1C(=O)[C@@H](N)CCCNC(=N)N)C(=O)N[C@@H](CCC(=O)NCCC(=O)NCCNS(=O)(=O)c1cccc2cnccc12)C(=O)N[C@@H](CCC)C(=O)N[C@@H](Cc1ccccc1)C(N)=O [60020-95] (H-RPR[Nle]E([βAla-Ethylenediamine-Isoquinoline5sulfonyl])[Nva]F-NH2; N-terminus assumed)
IC50 (PKA; [2]): 2 µM
inhibition at 1 µM (PKB; [3]): 46%
inhibition at 1 µM (PKB; [4]): 90%
IC50 (PKB; [5]): 3.3 µM

Molecule: 60005-75 (RPR[Nva]S[GlyNH2][hLeu]) [Compound 60005-75]
% Inhibition PKA (PKA; peptide moiety alone): −4%
% Inhibition PKB I (PKB; peptide moiety alone): 70%
% Inhibition PKB II (PKB; peptide moiety alone): 70%

Molecule: 60005-84 (RPR[Nva]TA[hLeu]) [Compound 60005-84]
% Inhibition PKA (PKA; peptide moiety alone): 7%
% Inhibition PKB I (PKB; peptide moiety alone): 39%
% Inhibition PKB II (PKB; peptide moiety alone): 48%

Molecule: CC[C@H](NC(=O)[C@H](CO)NC(=O)[C@@H](NC(=O)[C@H](CCCNC(=N)N)NC(=O)[C@@H]1CCCN1C(=O)[C@@H](N)CCCNC(=N)N)C(C)C)C(=O)N[C@@H](Cc1ccccc1)C(N)=O [TY 60002-61, Arg-Pro-Arg-Val-Ser-Abu-Phe] (H-RPRVS[Abu]F-NH2; N-terminus and C-terminus assumed)
IC50 (PKA; [6]): > 40 µM
IC50 (PKB; [7]): 5 µM

Molecule: N=C(N)NCCC[C@H](NC(=O)[C@@H]1CCCN1C(=O)[C@@H](N)CCCNC(=N)N)C(=O)N[C@@H](CN)C(=O)N[C@@H](CCC(=O)NCCC(=O)NCCNS(=O)(=O)c1cccc2cnccc12)C(=O)N[C@@H](CCCN)C(=O)N[C@@H](Cc1ccccc1)C(N)=O [60020-67] (H-RPR[Dap]E([βAla-Ethylenediamine-Isoquinoline5sulfonyl])[Orn]F-NH2; N-terminus assumed)
IC50 (PKA; [2]): 0.25 µM
inhibition at 1 µM (PKB; [3]): 51%
inhibition at 1 µM (PKB; [4]): 68%
IC50 (PKB; [5]): 1.08 µM

Molecule: CC[C@H](NC(=O)[C@H](CO)NC(=O)[C@@H](NC(=O)[C@H](CCCNC(=N)N)NC(=O)[C@@H]1CCCN1C(=O)[C@@H](N)CCCNC(=N)N)[C@@H](C)O)C(=O)N[C@@H](CCC(C)C)C(N)=O [TY 60002-73, Arg-Pro-Arg-Thr-Ser-Abu-Hol] (H-RPRTS[Abu][hLeu]-NH2; N-terminus and C-terminus assumed)
IC50 (PKA; [6]): > 40 µM
IC50 (PKA; [8]): 228 µM
% Inhibition PKA (PKA; peptide moiety alone): 8%
IC50 (PKB; [7]): 5 µM
IC50 (PKB; [9]): 34 µM
% Inhibition PKB I (PKB; peptide moiety alone): 44%

Molecule: C[C@@H](O)[C@H](NC(=O)[C@H](CCCNC(=N)N)NC(=O)[C@@H]1CCCN1C(=O)[C@@H](N)CCCNC(=N)N)C(=O)N[C@@H](CC(=O)NCCNS(=O)(=O)c1cccc2cnccc12)C(=O)N[C@@H](CO)C(=O)N[C@@H](Cc1ccccc1)C(N)=O [compound 6130] (H-RPRTD([Ethylenediamine-Isoquinoline5sulfonyl])SF-NH2; N-terminus assumed)
IC50 (PKA; [10]): 0.053 µM
IC50 (PKB; [1]): 9.5 µM

Molecule: 60020-37: Arg-Pro-Arg-Dap-Glu(Gly-5-aminoethylsulfonamide isoquinoline)-Ala-Phe (RPR[Dap]E([Gly-X1])AF)
PKA-kinase Assay 1, % inhibition of kinase activity (PKA): 98%
PKA-kinase Assay 2, % inhibition of kinase activity (PKA): 99%
PKB-kinase (spa) Assay 1, % inhibition of kinase activity (PKB; Assay 1): 53%
PKB-kinase (spa) Assay 2, % inhibition of kinase activity (PKB; Assay 2): 44%

Molecule: 60020-34: Arg-Pro-Arg-Dap-Glu(Gly-5-aminoethylsulfonamide isoquinoline)-Dab-Hol (RPR[Dap]E([Gly-X1])[Dab][hLeu])
PKA-kinase Assay 1, % inhibition of kinase activity (PKA): 97%
PKA-kinase Assay 2, % inhibition of kinase activity (PKA): 98%
PKB-kinase (spa) Assay 1, % inhibition of kinase activity (PKB; Assay 1): 64%
PKB-kinase (spa) Assay 2, % inhibition of kinase activity (PKB; Assay 2): 65%

Molecule: 60020-10: Arg-Pro-Arg-Orn-Glu(5-aminoethylsulfonamide isoquinoline)-Dab-Hol (RPR[Orn]E(X1)[Dab][hLeu])
PKA-kinase Assay 1, % inhibition of kinase activity (PKA): 92%
PKA-kinase Assay 2, % inhibition of kinase activity (PKA): 94%
PKB-kinase (spa) Assay 1, % inhibition of kinase activity (PKB; Assay 1): 45%
PKB-kinase (spa) Assay 2, % inhibition of kinase activity (PKB; Assay 2): 48%
